The values that follow come from patent US20240117011A1.

For this assay, the target named is spike of variant B.1.351 v.1 on pseudovirus. Description: cell-based or functional assay.

With CB6 (antibody), the neutralization IC50 is > 10 µg/mL.
LY-CoV555 (antibody): the neutralization IC50 is > 10 µg/mL.
